From publication PMC10289004

Assays:
[1] = western blot, erythrocytes of LPS-injected mice; details: glycan gained; control: LPS + PBS
[2] = RIPK1 protein level, MEFs; details: glycan lost; control: untreated
[3] = western blot, MEFs, 4h TSZ; details: glycan lost; control: TSZ alone
[4] = RIPK1 protein level, HT-29 or HEK293; details: glycan lost; control: untreated / control knockdown

B1: RIPK1 (mouse): TMG (protein)
parent chain: MQPDMSLDNIKMASSDLLEKTDLDSGGFGKVSLCYHRSHGFVILKKVYTGPNRAEYNEVLLEEGKMMHRLRHSRVVKLLGIIIEEGNYSLVMEYMEKGNLMHVLKTQIDVPLSLKGRIIVEAIEGMCYLHDKGVIHKDLKPENILVDRDFHIKIADLGVASFKTWSKLTKEKDNKQKEVSSTTKKNNGGTLYYMAPEHLNDINAKPTEKSDVYSFGIVLWAIFAKKEPYENVICTEQFVICIKSGNRPNVEEILEYCPREIISLMERCWQAIPEDRPTFLGIEEEFRPFYLSHFEEYVEEDVASLKKEYPDQSPVLQRMFSLQHDCVPLPPSRSNSEQPGSLHSSQGLQMGPVEESWFSSSPEYPQDENDRSVQAKLQEEASYHAFGIFAEKQTKPQPRQNEAYNREEERKRRVSHDPFAQQRARENIKSAGARGHSDPSTTSRGIAVQQLSWPATQTVWNNGLYNQHGFGTTGTGVWYPPNLSQMYSTYKTPVPETNIPGSTPTMPYFSGPVADDLIKYTIFNSSGIQIGNHNYMDVGLNSQPPNNTCKEESTSRHQAIFDNTTSLTDEHLNPIRENLGRQWKNCARKLGFTESQIDEIDHDYERDGLKEKVYQMLQKWLMREGTKGATVGKLAQALHQCCRIDLLNHLIRASQS
- other: RIPK1 Ser166 phosphorylation [1]: decreases

B2: RIPK1 (mouse): OSMI-4 (protein)
parent chain: MQPDMSLDNIKMASSDLLEKTDLDSGGFGKVSLCYHRSHGFVILKKVYTGPNRAEYNEVLLEEGKMMHRLRHSRVVKLLGIIIEEGNYSLVMEYMEKGNLMHVLKTQIDVPLSLKGRIIVEAIEGMCYLHDKGVIHKDLKPENILVDRDFHIKIADLGVASFKTWSKLTKEKDNKQKEVSSTTKKNNGGTLYYMAPEHLNDINAKPTEKSDVYSFGIVLWAIFAKKEPYENVICTEQFVICIKSGNRPNVEEILEYCPREIISLMERCWQAIPEDRPTFLGIEEEFRPFYLSHFEEYVEEDVASLKKEYPDQSPVLQRMFSLQHDCVPLPPSRSNSEQPGSLHSSQGLQMGPVEESWFSSSPEYPQDENDRSVQAKLQEEASYHAFGIFAEKQTKPQPRQNEAYNREEERKRRVSHDPFAQQRARENIKSAGARGHSDPSTTSRGIAVQQLSWPATQTVWNNGLYNQHGFGTTGTGVWYPPNLSQMYSTYKTPVPETNIPGSTPTMPYFSGPVADDLIKYTIFNSSGIQIGNHNYMDVGLNSQPPNNTCKEESTSRHQAIFDNTTSLTDEHLNPIRENLGRQWKNCARKLGFTESQIDEIDHDYERDGLKEKVYQMLQKWLMREGTKGATVGKLAQALHQCCRIDLLNHLIRASQS
- expression_or_secretion [2]: no change
- other: RIPK1 Ser166 phosphorylation [3]: increases

B3: RIPK1 (hRIPK1): OGT knockdown (protein)
parent chain: MQPDMSLNVIKMKSSDFLESAELDSGGFGKVSLCFHRTQGLMIMKTVYKGPNCIEHNEALLEEAKMMNRLRHSRVVKLLGVIIEEGKYSLVMEYMEKGNLMHVLKAEMSTPLSVKGRIILEIIEGMCYLHGKGVIHKDLKPENILVDNDFHIKIADLGLASFKMWSKLNNEEHNELREVDGTAKKNGGTLYYMAPEHLNDVNAKPTEKSDVYSFAVVLWAIFANKEPYENAICEQQLIMCIKSGNRPDVDDITEYCPREIISLMKLCWEANPEARPTFPGIEEKFRPFYLSQLEESVEEDVKSLKKEYSNENAVVKRMQSLQLDCVAVPSSRSNSATEQPGSLHSSQGLGMGPVEESWFAPSLEHPQEENEPSLQSKLQDEANYHLYGSRMDRQTKQQPRQNVAYNREEERRRRVSHDPFAQQRPYENFQNTEGKGTAYSSAASHGNAVHQPSGLTSQPQVLYQNNGLYSSHGFGTRPLDPGTAGPRVWYRPIPSHMPSLHNIPVPETNYLGNTPTMPFSSLPPTDESIKYTIYNSTGIQIGAYNYMEIGGTSSSLLDSTNTNFKEEPAAKYQAIFDNTTSLTDKHLDPIRENLGKHWKNCARKLGFTQSQIDEIDHDYERDGLKEKVYQMLQKWVMREGIKGATVGKLAQALHQCSRIDLLSSLIYVSQN
- expression_or_secretion [4]: no change
